Measurements published in article PMC2275084.

Key:
[1] = target: T1, TEN domain (in vitro translated) (Tetrahymena thermophila, UniProt O77448 2-191); experiment: NeutrAvidin pull-down
T1 sequence: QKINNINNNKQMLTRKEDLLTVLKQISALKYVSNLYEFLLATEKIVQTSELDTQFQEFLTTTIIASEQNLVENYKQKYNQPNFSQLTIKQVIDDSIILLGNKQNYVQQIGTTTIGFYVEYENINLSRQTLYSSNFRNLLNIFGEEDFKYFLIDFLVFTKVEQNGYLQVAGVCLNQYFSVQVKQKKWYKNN

TERT deltaC233 = target: T2, TERT deltaC233 (Tetrahymena thermophila, UniProt O77448 1-884); experiment: NeutrAvidin pull-down
T2 sequence: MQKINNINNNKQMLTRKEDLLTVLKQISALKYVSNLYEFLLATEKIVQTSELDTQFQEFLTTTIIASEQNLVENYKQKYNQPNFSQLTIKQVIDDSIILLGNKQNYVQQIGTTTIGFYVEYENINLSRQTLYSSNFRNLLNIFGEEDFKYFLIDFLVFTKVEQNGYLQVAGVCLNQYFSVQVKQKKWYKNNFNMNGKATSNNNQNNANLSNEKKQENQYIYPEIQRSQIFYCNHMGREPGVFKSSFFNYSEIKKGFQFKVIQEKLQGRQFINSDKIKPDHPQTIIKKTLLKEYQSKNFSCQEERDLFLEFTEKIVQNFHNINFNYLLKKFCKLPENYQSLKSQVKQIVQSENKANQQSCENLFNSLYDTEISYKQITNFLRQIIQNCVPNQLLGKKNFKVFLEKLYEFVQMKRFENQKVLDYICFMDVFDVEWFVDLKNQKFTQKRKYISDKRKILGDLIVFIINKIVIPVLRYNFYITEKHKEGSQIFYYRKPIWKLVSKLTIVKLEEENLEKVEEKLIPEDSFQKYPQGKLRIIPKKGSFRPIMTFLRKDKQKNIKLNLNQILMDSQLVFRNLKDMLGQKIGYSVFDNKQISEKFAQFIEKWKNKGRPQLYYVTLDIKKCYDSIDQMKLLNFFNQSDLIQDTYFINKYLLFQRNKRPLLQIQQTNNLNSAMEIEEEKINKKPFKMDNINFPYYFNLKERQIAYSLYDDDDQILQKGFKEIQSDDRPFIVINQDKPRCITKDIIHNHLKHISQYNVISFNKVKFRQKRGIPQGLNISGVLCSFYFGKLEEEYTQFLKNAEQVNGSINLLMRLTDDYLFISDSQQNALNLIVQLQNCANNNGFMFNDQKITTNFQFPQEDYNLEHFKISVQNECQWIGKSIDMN

TERT deltaTEN = target: T3, TERT deltaTEN (Tetrahymena thermophila, UniProt O77448 192-1117); experiment: NeutrAvidin pull-down
T3 sequence: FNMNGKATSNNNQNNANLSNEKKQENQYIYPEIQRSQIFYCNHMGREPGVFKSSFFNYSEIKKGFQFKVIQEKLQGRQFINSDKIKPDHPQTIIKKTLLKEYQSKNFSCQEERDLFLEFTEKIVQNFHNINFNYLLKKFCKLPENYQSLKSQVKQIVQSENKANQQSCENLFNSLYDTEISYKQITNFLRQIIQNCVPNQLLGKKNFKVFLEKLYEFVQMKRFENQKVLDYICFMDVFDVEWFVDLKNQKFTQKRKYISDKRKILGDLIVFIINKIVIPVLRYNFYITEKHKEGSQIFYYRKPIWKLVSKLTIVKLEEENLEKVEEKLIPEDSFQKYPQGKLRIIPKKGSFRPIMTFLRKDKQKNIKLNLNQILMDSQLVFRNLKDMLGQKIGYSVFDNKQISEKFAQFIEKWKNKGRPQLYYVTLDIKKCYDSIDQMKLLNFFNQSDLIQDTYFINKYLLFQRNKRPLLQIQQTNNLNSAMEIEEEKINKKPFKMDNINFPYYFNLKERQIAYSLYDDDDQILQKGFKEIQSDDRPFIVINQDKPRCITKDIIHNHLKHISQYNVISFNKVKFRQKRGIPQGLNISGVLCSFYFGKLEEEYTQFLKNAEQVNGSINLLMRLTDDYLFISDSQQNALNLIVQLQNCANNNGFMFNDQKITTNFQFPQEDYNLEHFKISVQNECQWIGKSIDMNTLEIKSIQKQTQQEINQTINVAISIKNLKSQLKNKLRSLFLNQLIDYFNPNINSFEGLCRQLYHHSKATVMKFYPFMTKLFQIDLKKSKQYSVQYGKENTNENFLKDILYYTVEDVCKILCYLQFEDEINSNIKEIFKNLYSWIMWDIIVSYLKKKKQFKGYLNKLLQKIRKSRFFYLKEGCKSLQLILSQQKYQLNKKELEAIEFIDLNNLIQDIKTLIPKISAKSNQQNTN

N519 [2] = target: T4, N519 (Tetrahymena thermophila, UniProt O77448 1-519); experiment: NeutrAvidin pull-down
T4 sequence: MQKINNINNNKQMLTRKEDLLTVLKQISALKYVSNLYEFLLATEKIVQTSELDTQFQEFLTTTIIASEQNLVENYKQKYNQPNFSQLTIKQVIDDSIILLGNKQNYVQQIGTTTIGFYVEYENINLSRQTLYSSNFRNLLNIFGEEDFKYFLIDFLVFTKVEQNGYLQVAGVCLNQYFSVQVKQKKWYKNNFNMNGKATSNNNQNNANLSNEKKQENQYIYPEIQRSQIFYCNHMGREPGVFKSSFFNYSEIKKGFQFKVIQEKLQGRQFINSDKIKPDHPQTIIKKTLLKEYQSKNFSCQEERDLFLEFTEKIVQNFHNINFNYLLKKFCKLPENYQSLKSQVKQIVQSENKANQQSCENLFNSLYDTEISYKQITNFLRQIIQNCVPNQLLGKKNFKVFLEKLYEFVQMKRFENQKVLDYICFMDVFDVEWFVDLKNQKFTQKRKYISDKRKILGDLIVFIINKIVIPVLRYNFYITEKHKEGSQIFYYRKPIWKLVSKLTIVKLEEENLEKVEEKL

N519 [3] = target: T4, N519; experiment: UV crosslinking
TEN domain (E. coli) = target: T5, TEN domain (E. coli) (Tetrahymena thermophila, UniProt O77448 2-191); experiment: UV crosslinking
T5 sequence: T1 sequence

C598 = target: T6, C598 (Tetrahymena thermophila, UniProt O77448 520-1117); experiment: UV crosslinking
T6 sequence: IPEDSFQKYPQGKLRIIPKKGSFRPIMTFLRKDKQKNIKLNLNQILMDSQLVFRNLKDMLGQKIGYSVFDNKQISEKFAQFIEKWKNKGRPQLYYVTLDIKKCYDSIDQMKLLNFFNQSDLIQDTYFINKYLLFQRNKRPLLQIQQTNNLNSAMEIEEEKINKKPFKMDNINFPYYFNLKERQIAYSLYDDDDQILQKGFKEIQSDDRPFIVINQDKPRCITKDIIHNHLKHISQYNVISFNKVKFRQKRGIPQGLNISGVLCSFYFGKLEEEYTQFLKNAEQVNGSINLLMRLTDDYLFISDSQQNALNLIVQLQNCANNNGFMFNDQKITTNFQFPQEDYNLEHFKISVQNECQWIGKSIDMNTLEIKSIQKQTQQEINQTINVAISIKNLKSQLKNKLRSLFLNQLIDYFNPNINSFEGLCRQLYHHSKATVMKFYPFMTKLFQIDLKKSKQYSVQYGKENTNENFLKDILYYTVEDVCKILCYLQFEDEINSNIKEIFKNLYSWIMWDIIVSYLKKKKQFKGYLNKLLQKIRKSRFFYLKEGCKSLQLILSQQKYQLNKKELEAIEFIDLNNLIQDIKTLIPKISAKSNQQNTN

Binder	binding result [1]	binding signal (TERT deltaC233)	binding signal (TERT deltaTEN)	binding signal (N519 [2])	binding result (N519 [3])	binding result (TEN domain (E. coli))	binding result (C598)
GGGGTTGGGGTTGGGGTT (ssDNA, 5' biotin) [Bio-18GTT]	no binding	~4 fold higher Kd than full-length TERT	~4 fold higher Kd than full-length TERT	~6 fold lower affinity than full-length TERT	–	–	–
TTGGGGTTGGGGUTGGGGTT (ssDNA, 5-iodo-dU at position 13) [I(13)20GTT]	–	–	–	–	binds	binds	binds
UTGGGGTTGGGGTTGGGGTT (ssDNA, 5-iodo-dU at position 1) [I(1)20GTT]	–	–	–	–	binds	–	binds
TTGGGGUTGGGGTTGGGGTT (ssDNA, 5-iodo-dU at position 7) [I(7)20GTT]	–	–	–	–	binds	binds	binds
TTGGGGTTGGGGTTGGGGUT (ssDNA, 5-iodo-dU at position 19) [I(19)20GTT]	–	–	–	–	binds	binds	binds
